Experiment [1] concerns the target high-affinity receptors for VEGF in HUVECs. The experiment can be described thus: cell-based or functional assay.
The target of experiment [2] is Flt-1 VEGF receptor (human (on HUVEC)) (UniProt P17948). The experiment can be described thus: cell-based or functional assay.
UniProt P17948, sequence (P17948 27-1338): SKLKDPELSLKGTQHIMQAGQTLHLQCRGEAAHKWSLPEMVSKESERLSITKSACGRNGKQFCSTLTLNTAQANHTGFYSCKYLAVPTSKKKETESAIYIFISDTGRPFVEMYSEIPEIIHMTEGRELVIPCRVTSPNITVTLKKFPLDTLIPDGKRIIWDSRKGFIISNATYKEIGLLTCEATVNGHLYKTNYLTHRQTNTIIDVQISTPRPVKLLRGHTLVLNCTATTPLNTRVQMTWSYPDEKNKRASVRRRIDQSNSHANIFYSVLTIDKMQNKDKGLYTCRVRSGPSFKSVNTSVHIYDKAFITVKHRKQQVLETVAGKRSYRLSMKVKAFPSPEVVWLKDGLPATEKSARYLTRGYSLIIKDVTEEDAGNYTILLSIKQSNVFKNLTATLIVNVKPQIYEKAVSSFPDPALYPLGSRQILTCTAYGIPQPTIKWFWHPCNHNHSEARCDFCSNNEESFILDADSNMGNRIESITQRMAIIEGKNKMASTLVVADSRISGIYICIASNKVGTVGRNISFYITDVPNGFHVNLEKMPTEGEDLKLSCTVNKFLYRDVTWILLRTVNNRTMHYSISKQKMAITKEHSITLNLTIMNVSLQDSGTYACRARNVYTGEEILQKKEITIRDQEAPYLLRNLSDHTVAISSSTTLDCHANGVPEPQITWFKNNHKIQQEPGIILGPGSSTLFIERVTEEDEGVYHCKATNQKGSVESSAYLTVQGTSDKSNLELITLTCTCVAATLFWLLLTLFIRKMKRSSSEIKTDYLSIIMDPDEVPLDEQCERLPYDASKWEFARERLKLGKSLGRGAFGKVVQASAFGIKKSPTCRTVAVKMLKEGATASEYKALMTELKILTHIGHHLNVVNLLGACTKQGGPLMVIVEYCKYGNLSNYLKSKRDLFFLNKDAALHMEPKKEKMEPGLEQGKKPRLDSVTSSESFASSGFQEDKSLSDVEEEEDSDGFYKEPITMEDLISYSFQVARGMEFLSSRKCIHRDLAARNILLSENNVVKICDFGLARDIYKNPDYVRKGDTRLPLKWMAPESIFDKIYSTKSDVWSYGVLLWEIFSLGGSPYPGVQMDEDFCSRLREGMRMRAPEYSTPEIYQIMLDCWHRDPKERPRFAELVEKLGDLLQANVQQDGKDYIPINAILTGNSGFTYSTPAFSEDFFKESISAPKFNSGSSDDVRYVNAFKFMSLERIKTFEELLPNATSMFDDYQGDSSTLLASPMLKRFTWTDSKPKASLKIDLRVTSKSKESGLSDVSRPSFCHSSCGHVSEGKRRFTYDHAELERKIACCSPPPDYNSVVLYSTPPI

In experiment [1], “recombinant human VEGF (vascular endothelial growth factor) (from UniProt P15692 27-191) (ligand)” showed an arachidonic acid release from prelabelled HUVEC, concentration of maximum effect of 10 to 20 ng/mL; an arachidonic acid release from prelabelled HUVEC, half-maximum effect of 2.5 to 5 ng/mL; a mean increase in release of labelled arachidonic acid above basal level of 1.6 fold.

B1: recombinant placenta growth factor (P1GF) (ligand, UniProt P49763-2 21-149, looked up)
chain: AVPPQQWALSAGNGSSEVEVVPFQEVWGRSYCRALERLVDVVSEYPSEVEHMFSPSCVSLLRCTGCCGDENLHCVPVETANVTMQLLKIRSGDRPSYVELTFSQHVRCECRPLREKMKPERCGDAVPRR
As to B1, in experiment [2], the mean fold increase in 6-keto PGF1a above control, 60 min with 60 ng/ml P1GF amounted to 1.3 fold.

Source of the values: US20120308522A1.
